Data from patent US20150258192A1, “COMPOSITIONS AND METHODS FOR PREVENTING OR TREATING CHRONIC LUNG ALLOGRAFT DYSFUNCTION (CLAD) AND IDIOPATHIC PULMONARY FIBROSIS (IPF)” (priority 2014, published 2015).
No end group written: not given here.

Key:
Experiment in all cases: Kinase Profiling Assay
Assay type in all cases: biochemical
Details in all cases: peptide 100 μM
BrSK2(h) = biological target: T1, BrSK2(h) (Homo sapiens, UniProt Q8IWQ3)
T1 sequence (Q8IWQ3 1-736): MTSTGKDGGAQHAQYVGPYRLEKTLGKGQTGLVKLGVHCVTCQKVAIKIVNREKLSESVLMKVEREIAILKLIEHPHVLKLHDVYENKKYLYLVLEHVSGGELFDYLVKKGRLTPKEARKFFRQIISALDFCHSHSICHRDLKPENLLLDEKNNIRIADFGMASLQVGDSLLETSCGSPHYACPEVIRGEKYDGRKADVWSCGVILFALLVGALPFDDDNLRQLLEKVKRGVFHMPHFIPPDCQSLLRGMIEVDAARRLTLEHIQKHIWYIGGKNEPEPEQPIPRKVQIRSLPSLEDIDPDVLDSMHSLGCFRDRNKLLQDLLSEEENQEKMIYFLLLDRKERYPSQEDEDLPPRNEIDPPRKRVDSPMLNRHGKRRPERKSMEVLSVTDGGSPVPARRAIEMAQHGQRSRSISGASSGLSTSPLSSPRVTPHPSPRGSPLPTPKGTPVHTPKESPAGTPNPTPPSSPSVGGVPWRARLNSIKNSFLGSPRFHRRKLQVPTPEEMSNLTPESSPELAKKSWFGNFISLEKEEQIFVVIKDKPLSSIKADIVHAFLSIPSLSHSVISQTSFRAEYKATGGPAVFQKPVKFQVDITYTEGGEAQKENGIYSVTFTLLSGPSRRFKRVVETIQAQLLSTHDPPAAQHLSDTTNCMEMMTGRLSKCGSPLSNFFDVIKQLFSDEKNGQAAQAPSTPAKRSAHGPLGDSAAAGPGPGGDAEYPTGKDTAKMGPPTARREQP
Method in brief: (§1)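 Scintillation counting quantifies radiolabeled, positively charged substrate retained on a negatively charged filter after kinase reaction with labeled ATP; inhibitor peptide present.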

Fms(h) = Fms(h) (Homo sapiens, UniProt P07333)
Method in brief: as §1

GSK3β(h) = biological target: T2, GSK3β(h) (Homo sapiens, UniProt P49841)
T2 construct: purchased Millipore
T2 sequence (P49841 whole entry): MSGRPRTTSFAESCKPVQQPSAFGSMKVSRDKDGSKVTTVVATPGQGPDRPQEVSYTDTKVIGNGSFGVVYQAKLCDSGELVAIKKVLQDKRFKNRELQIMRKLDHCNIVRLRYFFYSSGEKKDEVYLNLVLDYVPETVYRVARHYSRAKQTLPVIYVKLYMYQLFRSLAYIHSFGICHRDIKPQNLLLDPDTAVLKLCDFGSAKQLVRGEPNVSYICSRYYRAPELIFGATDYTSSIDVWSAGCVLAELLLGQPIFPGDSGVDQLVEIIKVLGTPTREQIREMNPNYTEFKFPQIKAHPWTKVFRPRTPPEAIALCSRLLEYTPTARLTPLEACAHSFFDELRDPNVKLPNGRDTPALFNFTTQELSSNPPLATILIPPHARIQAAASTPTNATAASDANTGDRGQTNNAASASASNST
Method in brief: as §1

Haspin(h) = biological target: T3, Haspin(h) (Homo sapiens, UniProt Q8TF76)
T3 construct: purchased Millipore
T3 sequence (Q8TF76 1-798): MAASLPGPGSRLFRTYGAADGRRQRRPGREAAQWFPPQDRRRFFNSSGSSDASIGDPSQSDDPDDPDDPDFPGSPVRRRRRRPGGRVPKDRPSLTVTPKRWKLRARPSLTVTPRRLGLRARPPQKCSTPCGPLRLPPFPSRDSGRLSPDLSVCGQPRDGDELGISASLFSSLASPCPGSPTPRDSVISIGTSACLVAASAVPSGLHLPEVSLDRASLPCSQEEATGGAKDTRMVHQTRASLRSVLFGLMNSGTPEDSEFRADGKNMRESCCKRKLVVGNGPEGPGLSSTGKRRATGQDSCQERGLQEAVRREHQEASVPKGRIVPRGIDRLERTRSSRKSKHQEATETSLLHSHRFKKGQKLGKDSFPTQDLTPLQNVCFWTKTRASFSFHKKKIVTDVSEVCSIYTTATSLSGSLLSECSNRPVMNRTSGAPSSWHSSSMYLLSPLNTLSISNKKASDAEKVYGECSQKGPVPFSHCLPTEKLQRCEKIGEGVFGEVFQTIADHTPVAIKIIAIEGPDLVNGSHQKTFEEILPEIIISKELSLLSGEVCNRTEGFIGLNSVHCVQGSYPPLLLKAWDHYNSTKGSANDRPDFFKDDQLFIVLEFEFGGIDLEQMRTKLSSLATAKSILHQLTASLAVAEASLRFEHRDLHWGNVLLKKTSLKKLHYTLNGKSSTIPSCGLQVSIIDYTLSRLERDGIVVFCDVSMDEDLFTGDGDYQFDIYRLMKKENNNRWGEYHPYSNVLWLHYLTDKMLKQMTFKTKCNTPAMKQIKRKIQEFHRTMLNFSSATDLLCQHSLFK
Method in brief: as §1

Lyn(h) = biological target: T4, Lyn(h) (Homo sapiens, UniProt P07948)
T4 construct: purchased Millipore
T4 sequence (P07948 whole entry): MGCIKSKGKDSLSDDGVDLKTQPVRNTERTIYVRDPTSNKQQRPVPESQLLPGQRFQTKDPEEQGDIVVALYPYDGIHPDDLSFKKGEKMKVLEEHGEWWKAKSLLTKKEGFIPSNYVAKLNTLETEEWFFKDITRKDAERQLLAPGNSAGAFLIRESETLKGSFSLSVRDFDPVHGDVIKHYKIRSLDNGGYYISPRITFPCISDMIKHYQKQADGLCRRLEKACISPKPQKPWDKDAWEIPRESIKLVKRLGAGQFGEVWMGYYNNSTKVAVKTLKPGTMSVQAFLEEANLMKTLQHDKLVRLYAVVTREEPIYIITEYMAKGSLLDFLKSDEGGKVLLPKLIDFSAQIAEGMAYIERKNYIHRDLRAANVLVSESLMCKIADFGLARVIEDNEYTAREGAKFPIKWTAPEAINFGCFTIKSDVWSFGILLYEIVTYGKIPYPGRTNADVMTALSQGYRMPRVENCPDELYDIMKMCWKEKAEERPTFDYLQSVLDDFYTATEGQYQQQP
Method in brief: as §1

PASK(h) = PASK(h) (Homo sapiens, UniProt Q96RG2)
PASK(h), sequence (Q96RG2 whole entry): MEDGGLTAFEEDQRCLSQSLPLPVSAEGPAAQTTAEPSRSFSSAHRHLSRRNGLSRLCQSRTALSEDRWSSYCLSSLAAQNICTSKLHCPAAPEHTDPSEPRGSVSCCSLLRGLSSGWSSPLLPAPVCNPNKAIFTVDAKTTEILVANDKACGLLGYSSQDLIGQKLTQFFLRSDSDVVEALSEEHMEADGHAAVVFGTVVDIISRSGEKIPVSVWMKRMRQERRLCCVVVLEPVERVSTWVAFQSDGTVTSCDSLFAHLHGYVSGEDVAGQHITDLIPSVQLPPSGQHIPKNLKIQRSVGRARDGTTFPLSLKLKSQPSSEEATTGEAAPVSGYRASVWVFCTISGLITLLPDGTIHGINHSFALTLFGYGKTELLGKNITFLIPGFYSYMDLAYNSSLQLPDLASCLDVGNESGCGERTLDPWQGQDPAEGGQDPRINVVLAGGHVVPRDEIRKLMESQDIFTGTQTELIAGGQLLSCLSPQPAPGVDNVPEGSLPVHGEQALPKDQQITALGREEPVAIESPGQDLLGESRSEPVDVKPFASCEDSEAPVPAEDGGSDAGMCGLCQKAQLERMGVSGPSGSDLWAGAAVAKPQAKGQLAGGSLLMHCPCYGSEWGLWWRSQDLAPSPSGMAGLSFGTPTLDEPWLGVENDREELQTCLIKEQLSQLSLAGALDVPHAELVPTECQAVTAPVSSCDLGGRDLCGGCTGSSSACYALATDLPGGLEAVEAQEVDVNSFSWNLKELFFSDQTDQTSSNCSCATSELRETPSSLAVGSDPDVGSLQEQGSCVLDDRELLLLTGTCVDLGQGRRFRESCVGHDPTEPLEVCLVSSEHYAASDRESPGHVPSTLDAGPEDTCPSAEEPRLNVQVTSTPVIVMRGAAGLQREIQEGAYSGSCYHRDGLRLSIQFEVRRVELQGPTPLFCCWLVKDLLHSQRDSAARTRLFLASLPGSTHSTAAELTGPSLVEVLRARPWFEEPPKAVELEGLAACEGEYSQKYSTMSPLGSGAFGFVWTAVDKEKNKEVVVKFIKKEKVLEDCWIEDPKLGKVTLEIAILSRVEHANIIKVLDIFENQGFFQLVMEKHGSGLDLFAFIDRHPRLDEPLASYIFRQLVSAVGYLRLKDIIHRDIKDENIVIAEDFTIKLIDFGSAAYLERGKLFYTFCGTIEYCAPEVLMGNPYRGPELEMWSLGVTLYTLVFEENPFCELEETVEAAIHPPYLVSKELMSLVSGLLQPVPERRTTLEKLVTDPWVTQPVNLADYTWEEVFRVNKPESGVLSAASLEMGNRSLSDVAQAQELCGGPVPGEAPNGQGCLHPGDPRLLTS
Method in brief: as §1

PDGFRβ(h) = PDGFRβ(h) (Homo sapiens, UniProt P09619)
PDGFRβ(h), sequence (P09619 33-1106): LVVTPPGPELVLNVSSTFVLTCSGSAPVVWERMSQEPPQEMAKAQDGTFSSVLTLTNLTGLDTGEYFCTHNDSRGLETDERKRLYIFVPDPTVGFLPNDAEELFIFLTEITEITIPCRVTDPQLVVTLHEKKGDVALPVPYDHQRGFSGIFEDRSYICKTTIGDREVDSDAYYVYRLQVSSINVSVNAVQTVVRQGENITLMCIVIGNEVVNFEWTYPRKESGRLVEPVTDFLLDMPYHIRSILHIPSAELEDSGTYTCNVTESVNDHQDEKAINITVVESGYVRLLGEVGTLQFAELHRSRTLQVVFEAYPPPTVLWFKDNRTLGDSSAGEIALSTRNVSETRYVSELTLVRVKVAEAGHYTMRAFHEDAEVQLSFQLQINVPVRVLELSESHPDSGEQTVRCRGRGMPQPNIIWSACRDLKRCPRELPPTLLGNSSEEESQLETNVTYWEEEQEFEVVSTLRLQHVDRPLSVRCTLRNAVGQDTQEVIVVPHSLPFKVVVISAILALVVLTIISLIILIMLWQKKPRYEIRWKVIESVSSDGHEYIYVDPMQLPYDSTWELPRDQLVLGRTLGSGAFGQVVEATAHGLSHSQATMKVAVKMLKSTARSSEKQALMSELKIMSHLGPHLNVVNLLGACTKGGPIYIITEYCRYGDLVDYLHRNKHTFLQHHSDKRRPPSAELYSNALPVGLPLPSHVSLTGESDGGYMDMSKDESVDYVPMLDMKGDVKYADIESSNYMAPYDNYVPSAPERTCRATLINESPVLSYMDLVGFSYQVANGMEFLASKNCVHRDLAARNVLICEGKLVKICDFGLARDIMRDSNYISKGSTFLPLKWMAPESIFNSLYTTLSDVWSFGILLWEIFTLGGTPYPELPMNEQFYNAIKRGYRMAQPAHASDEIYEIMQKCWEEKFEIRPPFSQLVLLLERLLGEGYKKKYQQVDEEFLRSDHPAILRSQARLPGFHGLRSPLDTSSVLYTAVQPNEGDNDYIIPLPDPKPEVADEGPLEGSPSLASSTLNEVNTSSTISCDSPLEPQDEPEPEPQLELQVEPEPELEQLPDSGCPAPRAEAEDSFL
Method in brief: as §1

PKCδ(h) = PKCδ(h) (Homo sapiens, UniProt Q05655)
PKCδ(h), sequence (Q05655 whole entry): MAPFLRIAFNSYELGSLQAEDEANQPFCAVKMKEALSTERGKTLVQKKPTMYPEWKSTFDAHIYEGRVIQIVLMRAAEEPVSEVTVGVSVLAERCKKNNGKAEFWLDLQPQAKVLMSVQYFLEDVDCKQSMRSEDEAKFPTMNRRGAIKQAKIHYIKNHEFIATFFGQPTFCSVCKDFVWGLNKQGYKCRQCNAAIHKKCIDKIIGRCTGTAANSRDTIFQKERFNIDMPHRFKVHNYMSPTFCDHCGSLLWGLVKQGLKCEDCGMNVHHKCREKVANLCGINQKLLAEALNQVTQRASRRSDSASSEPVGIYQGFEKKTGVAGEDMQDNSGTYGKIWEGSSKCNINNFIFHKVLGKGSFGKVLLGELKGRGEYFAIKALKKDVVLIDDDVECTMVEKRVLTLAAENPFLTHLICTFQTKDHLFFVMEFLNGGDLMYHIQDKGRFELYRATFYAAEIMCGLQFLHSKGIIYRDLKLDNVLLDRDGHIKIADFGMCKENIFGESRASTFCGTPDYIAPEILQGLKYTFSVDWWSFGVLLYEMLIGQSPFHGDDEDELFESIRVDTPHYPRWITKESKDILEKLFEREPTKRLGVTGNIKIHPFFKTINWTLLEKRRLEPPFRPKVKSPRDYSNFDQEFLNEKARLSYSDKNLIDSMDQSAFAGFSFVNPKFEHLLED
Method in brief: as §1

SAPK4(h) = biological target: T5, SAPK4(h) (Homo sapiens, UniProt O15264)
T5 construct: purchased Millipore
T5 sequence (O15264 1-365): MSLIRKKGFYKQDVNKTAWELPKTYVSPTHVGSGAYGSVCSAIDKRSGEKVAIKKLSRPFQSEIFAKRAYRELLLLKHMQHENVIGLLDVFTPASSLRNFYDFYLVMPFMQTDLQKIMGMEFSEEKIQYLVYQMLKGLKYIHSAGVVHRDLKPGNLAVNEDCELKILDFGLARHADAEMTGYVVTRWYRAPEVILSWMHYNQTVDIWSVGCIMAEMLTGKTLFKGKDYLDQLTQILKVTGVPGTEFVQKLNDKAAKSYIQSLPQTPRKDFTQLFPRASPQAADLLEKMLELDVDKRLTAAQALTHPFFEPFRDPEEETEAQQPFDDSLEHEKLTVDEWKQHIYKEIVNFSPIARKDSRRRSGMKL
Method in brief: as §1

Sequence	% activity (BrSK2(h)) [%]	% activity (Fms(h)) [%]	% activity (GSK3β(h)) [%]	% activity (Haspin(h)) [%]	% activity (Lyn(h)) [%]	% activity (PASK(h)) [%]	% activity (PDGFRβ(h)) [%]	% activity (PKCδ(h)) [%]	% activity (SAPK4(h)) [%]
FAKLAARLYRKALARQLGVAA [MMI-0300]	83	45	205	48	69	29	81	101	96
HRRIKAWLKKIKALARQLGVAA (Mammal) [MMI-0500]	84	14	238	25	31	9	40	61	48
KAFAKLAARLYRKALARQLGVAA [MMI-0400]	86	37	202	36	3	28	53	90	91
YARAAARQARAKALARQLGVAA [MMI-0100]	129	89	–	127	–	81	–	–	–
YARAAARQARAKALNRQLGVA (Mammal) [MMI-0200]	–	92	132	71	98	60	137	101	–
